Data reported in patent publication US20230183379A1.

Biological target: human IL-6 (human) (UniProt P05231)
Assay: cell-based or functional assay

Sequence of human IL-6 (human) (P05231 30-212 limits assumed): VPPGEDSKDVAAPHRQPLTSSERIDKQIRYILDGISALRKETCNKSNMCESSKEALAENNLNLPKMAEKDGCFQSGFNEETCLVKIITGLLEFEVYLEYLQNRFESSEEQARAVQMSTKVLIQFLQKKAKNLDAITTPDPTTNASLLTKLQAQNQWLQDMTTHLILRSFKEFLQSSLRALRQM

B1: BE8 (mouse monoclonal anti-IL6 neutralizing antibody) (antibody, from another filing, V domains shown)
VH: QVTLKESGPGILKPSQTLSLTCSFSGFSLSTSGMGVGWIRQPSGKGLEWLAHIWWDDDKYYNPSLKSQLTISKDTSRNQVFLKITSVDTADTATYYCARSYDDYLYYALDYWGQGTSVTVSS
VL: DIVMTQSPATLSVTPGDRVSLSCRASQSISDYLHWYQQKSHESPRLLIKSVSQSISGIPSRFSGSGSGSDFTLSINSVEPEDVGVYYCQNGHSFPLTFGAGTKLELK
inhibition of growth of XG6 cells in 40 pM IL-6, IC50: 3 nM
inhibition of growth of XG7 cells in 40 pM IL-6, IC50: 6 nM
